Assay results taken from article PMC11852578, “Enhanced Site-Specific Fluorescent Labeling of Membrane Proteins Using Native Nanodiscs” (Biomolecules, 2025).

Key:
[1] = target: the molecule itself; assay: SEC; KvAP in 0.25% (w/v) DM micelles; Superdex 200 Increase 10/300; SEC buffer 100 mM KCl, 25 mM Tris, pH 8; size estimated against gel filtration standards
[2] = target: the molecule itself; assay: SDS-PAGE; HpUreI L134C purified in LDAO instead of DDM
[3] = target: the molecule itself; assay: SEC; HpUreI L134C in Glyco-DIBMA native nanodiscs, labelled with AF647 maleimide; standard buffer 150 mM NaCl, 50 mM Tris, pH 7.4
[4] = target: the molecule itself; assay: fluorescence correlation spectroscopy (molecular brightness); SEC-purified, AF647-labelled protein in Glyco-DIBMA nanodiscs; brightness compared with free AF647 maleimide dye at the same laser power, assuming labelling of all monomers
[5] = target: the molecule itself; assay: SEC; KvAP in Glyco-DIBMA native nanodiscs, labelled with AF647 maleimide; standard buffer 150 mM KCl, 50 mM Tris, pH 7.4; UV and fluorescence detection

B1: KvAP wild type, archaeal voltage-gated potassium channel from Aeropyrum pernix, in DM detergent micelles (natural protein)
chain: GGRVRNIGDVMEHPLVELGVSYAALLSVIVVVVEYTMQLSGEYLVRLYLVDLILVIILWADYAYRAYKSGDPAGYVKKTLYEIPALVPAGLLALIEGHLAGLGLFRLVRLLRFLRILLIISRGSKFLSAIADAADKIRFYHLFGAVMLTVLYGAFAIYIVEYPDPNSSIKSVFDALWWAVVTATTVGYGDVVPATPIGKVIGIAVMLTGISALTLLIGTVSNMFQKILVGEPEPSCSPAKLAEMVSSMSEEEFEEFVRTLKNLRRLENSMK
notes: voltage-gated potassium channel KvAP, Aeropyrum pernix; native cysteine printed as C260; Labelling with AF647 maleimide failed in detergent, so the protein was unlabelled; also called wild-type KvAP; source: E. coli C43, pET21a-derived vector, membranes solubilised in DM, purified (Ni-NTA, SEC)
stoichiometry N [1]: 4

B2: HpUreI L134C single-cysteine mutant, Helicobacter pylori proton-gated urea channel, in detergent (DDM or LDAO) (natural protein)
chain: MLGLVLLYVGIVLISNGICGLTKVDPKSTAVMNFFVGGLSIICNIVVITYSALHPTAPVEGAEDIAQVSHHLTSFYGPATGLLFGFTYLYAAINHTFGLDWRPYSWYSLFVAINTIPAAILSHYSDMLDDHKVCGITEGDWWAIIWLAWGVLWLTAFIENILKIPLGKFTPWLAIIEGILTAWIPAWLLFIQHWV
notes: urea channel HpUreI, Helicobacter pylori; The hexamer remained unlabelled in detergent; with TCEP only aggregated and non-hexameric oligomers were labelled; also called detergent-solubilized HpUreI; source: E. coli C43, membranes solubilised in DDM or LDAO, purified (cobalt beads, HRV 3C cleavage, SEC)
stoichiometry N [2]: 6

B3: HpUreI L134C single-cysteine mutant labelled with AF647 maleimide, in Glyco-DIBMA native nanodiscs (natural protein)
chain: MLGLVLLYVGIVLISNGICGLTKVDPKSTAVMNFFVGGLSIICNIVVITYSALHPTAPVEGAEDIAQVSHHLTSFYGPATGLLFGFTYLYAAINHTFGLDWRPYSWYSLFVAINTIPAAILSHYSDMLDDHKVCGITEGDWWAIIWLAWGVLWLTAFIENILKIPLGKFTPWLAIIEGILTAWIPAWLLFIQHWV
modifications: Alexa Fluor 647 maleimide on the introduced cysteine L134C
notes: urea channel HpUreI, Helicobacter pylori; Same construct as m7, but labelled and in a nanodisc; no removal of the His tag is told for the nanodisc preparation; also called nanodisc-embedded HpUreI; source: E. coli C43, membranes extracted with Glyco-DIBMA, purified (Ni-NTA with on-column labelling, SEC)
stoichiometry N [3]: 6
stoichiometry N [4]: ~6

B4: KvAP K102C single-cysteine mutant, in DM detergent micelles (natural protein, Aeropyrum pernix)
chain: GGRVRNIGDVMEHPLVELGVSYAALLSVIVVVVEYTMQLSGEYLVRLYLVDLILVIILWADYAYRAYKSGDPAGYVKCTLYEIPALVPAGLLALIEGHLAGLGLFRLVRLLRFLRILLIISRGSKFLSAIADAADKIRFYHLFGAVMLTVLYGAFAIYIVEYPDPNSSIKSVFDALWWAVVTATTVGYGDVVPATPIGKVIGIAVMLTGISALTLLIGTVSNMFQKILVGEPEPSASPAKLAEMVSSMSEEEFEEFVRTLKNLRRLENSMK
notes: voltage-gated potassium channel KvAP, Aeropyrum pernix; native cysteine mutated to alanine and cysteine introduced at K102; Labelling failed in detergent, so the protein was unlabelled; source: E. coli C43, pET21a-derived vector, membranes solubilised in DM, purified (Ni-NTA, SEC)
stoichiometry N [1]: 4

B5: KvAP E275C single-cysteine mutant, in DM detergent micelles (natural protein, Aeropyrum pernix)
chain: GGRVRNIGDVMEHPLVELGVSYAALLSVIVVVVEYTMQLSGEYLVRLYLVDLILVIILWADYAYRAYKSGDPAGYVKKTLYEIPALVPAGLLALIEGHLAGLGLFRLVRLLRFLRILLIISRGSKFLSAIADAADKIRFYHLFGAVMLTVLYGAFAIYIVEYPDPNSSIKSVFDALWWAVVTATTVGYGDVVPATPIGKVIGIAVMLTGISALTLLIGTVSNMFQKILVGEPEPSASPAKLAEMVSSMSECEFEEFVRTLKNLRRLENSMK
notes: voltage-gated potassium channel KvAP, Aeropyrum pernix; native cysteine mutated to alanine and cysteine introduced at E275; Labelling failed in detergent, so the protein was unlabelled; source: E. coli C43, pET21a-derived vector, membranes solubilised in DM, purified (Ni-NTA, SEC)
stoichiometry N [1]: 4

B6: KvAP wild type labelled with AF647 maleimide, in Glyco-DIBMA native nanodiscs (natural protein, Aeropyrum pernix)
chain: GGRVRNIGDVMEHPLVELGVSYAALLSVIVVVVEYTMQLSGEYLVRLYLVDLILVIILWADYAYRAYKSGDPAGYVKKTLYEIPALVPAGLLALIEGHLAGLGLFRLVRLLRFLRILLIISRGSKFLSAIADAADKIRFYHLFGAVMLTVLYGAFAIYIVEYPDPNSSIKSVFDALWWAVVTATTVGYGDVVPATPIGKVIGIAVMLTGISALTLLIGTVSNMFQKILVGEPEPSCSPAKLAEMVSSMSEEEFEEFVRTLKNLRRLENSMK
modifications: Alexa Fluor 647 maleimide on the native cysteine C260
notes: voltage-gated potassium channel KvAP, Aeropyrum pernix; native cysteine printed as C260; Same construct as m1, but labelled and in a polymer-encapsulated lipid nanodisc; also called wild-type KvAP; nanodisc-purified wild-type KvAP; source: E. coli C43, membranes extracted with Glyco-DIBMA, purified (Ni-NTA with on-column labelling, SEC)
stoichiometry N [5]: 4
stoichiometry N [4]: ~4

B7: KvAP K102C single-cysteine mutant labelled with AF647 maleimide, in Glyco-DIBMA native nanodiscs (natural protein, Aeropyrum pernix)
chain: GGRVRNIGDVMEHPLVELGVSYAALLSVIVVVVEYTMQLSGEYLVRLYLVDLILVIILWADYAYRAYKSGDPAGYVKCTLYEIPALVPAGLLALIEGHLAGLGLFRLVRLLRFLRILLIISRGSKFLSAIADAADKIRFYHLFGAVMLTVLYGAFAIYIVEYPDPNSSIKSVFDALWWAVVTATTVGYGDVVPATPIGKVIGIAVMLTGISALTLLIGTVSNMFQKILVGEPEPSASPAKLAEMVSSMSEEEFEEFVRTLKNLRRLENSMK
modifications: Alexa Fluor 647 maleimide on the introduced cysteine K102C
notes: voltage-gated potassium channel KvAP, Aeropyrum pernix; native cysteine mutated to alanine and cysteine introduced at K102; Same construct as m3, but labelled and in a nanodisc; also called mutant K102C; source: E. coli C43, membranes extracted with Glyco-DIBMA, purified (Ni-NTA with on-column labelling, SEC)
stoichiometry N [4]: ~4

B8: KvAP E275C single-cysteine mutant labelled with AF647 maleimide, in Glyco-DIBMA native nanodiscs (natural protein, Aeropyrum pernix)
chain: GGRVRNIGDVMEHPLVELGVSYAALLSVIVVVVEYTMQLSGEYLVRLYLVDLILVIILWADYAYRAYKSGDPAGYVKKTLYEIPALVPAGLLALIEGHLAGLGLFRLVRLLRFLRILLIISRGSKFLSAIADAADKIRFYHLFGAVMLTVLYGAFAIYIVEYPDPNSSIKSVFDALWWAVVTATTVGYGDVVPATPIGKVIGIAVMLTGISALTLLIGTVSNMFQKILVGEPEPSASPAKLAEMVSSMSECEFEEFVRTLKNLRRLENSMK
modifications: Alexa Fluor 647 maleimide on the introduced cysteine E275C
notes: voltage-gated potassium channel KvAP, Aeropyrum pernix; native cysteine mutated to alanine and cysteine introduced at E275; Same construct as m4, but labelled and in a nanodisc; also called mutant E275C; source: E. coli C43, membranes extracted with Glyco-DIBMA, purified (Ni-NTA with on-column labelling, SEC)
stoichiometry N [4]: ~4
